Usually Kd stands for the free concentration of one partner at which half of the binding sites on the other are occupied at equilibrium, for simple one-to-one binding. A higher Kd goes with a looser complex.

Among the data in patent publication US20240255495 (UNIVERSITY OF PITTSBURGH-OF THE COMMONWEALTH SYSTEM OF …, published 2024) are binding result and Kd values, retold here.

The target in data set [1] is T1, PTK7 (protein tyrosine kinase 7), recombinant (UniProt Q13308 Q13308:31-704).
T1 sequence: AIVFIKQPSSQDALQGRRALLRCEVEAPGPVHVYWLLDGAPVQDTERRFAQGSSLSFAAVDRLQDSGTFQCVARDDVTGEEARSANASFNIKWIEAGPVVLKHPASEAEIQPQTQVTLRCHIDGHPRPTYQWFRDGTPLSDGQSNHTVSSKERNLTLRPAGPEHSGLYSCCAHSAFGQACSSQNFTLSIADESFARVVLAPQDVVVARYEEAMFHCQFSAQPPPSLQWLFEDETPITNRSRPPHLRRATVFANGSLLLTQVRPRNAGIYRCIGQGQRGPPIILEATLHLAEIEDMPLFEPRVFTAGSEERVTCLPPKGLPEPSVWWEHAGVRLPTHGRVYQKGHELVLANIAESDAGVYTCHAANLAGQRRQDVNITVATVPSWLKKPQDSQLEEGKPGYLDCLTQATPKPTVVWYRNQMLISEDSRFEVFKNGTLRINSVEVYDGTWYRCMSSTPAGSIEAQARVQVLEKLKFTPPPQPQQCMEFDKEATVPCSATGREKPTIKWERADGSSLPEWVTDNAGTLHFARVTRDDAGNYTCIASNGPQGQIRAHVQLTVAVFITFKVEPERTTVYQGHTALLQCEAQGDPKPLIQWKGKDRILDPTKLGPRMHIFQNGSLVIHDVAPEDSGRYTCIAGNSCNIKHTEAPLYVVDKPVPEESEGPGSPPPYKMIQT

A further data set concerns the target thrombin (UniProt P00734;P00734 P00734:328-363,P00734:364-622). Briefly: FP.

As for ATCTAACTGCTGCGCCGCCGGGAAAATACTGTACGGTTAGA (ssDNA, T27 conjugated to pyridinium oxime catalyst PyOx) [sgc8c(27)-PyOx], in data set [1], the binding result is on record as “binds”.
Molecule GGTTGGTGTGGTTGG (ssDNA) [TBA unmodified] displayed a Kd with thrombin of 220 nM.
